According to US20250382376A1 (FUDAN UNIVERSITY, published 2025):

Key:
[1] = molecular target: T1, extracellular domain of human CD73 protein, C-terminus polyhistidine-tagged (human, UniProt P21589 27-547); test: ELISA on coated human CD73-ECD (the text rounds this value to 0.05 µg/mL)
T1 construct: also the immunogen; also called CD73-ECD; human CD73-ECD
T1 sequence: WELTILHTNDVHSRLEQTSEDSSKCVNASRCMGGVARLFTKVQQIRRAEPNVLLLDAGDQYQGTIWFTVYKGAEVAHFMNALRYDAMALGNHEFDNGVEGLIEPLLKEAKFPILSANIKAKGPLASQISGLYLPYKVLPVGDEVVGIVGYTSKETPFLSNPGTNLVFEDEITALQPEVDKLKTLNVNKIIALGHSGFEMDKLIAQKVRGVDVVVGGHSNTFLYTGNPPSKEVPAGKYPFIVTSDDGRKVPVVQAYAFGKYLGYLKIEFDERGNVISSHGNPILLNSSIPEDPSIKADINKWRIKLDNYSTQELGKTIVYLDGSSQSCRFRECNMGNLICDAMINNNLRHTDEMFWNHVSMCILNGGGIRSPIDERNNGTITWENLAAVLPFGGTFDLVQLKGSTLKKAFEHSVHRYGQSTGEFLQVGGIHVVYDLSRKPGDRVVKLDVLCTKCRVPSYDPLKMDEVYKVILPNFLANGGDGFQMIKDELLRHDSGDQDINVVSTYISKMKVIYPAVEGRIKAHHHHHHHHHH
Protocol: (§1) The CD73 protein extracellular region (CD73-ECD) was diluted to 1 μg/mL using the coating solution, and an ELISA plate was coated at 100 μL/well at 4° C. overnight. Excess antigens were washed away, and the plate was blocked with 1% BSA at room temperature for 2 hours. Then, 5-fold gradient dilutions of each monoclonal antibody were added at 100 μL/well and incubated at room temperature for 1 hour. Unbound antibodies were washed away, and an appropriate concentration of Staphylococcal protein A labeled with horseradish peroxidase was added at 100 μL/well and incubated at room temperature for 0.5 hours. Unbound secondary antibodies were washed away, and TMB color development solution was added to react for about 15 minutes. 1M HCL was added at 50 µL/well to terminate the color development reaction, and then the absorbance was measured at 450 nm and the data was analyzed.
Based on the above mutants, 5-E11ASCS was designed and prepared, and the CD73 antigen ELISA binding affinity test was performed according to the method of Example 3.

[2] = molecular target: T1, extracellular domain of human CD73 …; test: ELISA on CD73-ECD, 20 µL supernatant of antibody expression, first of two readings; PBS 0.19, 0.18
Protocol: as §1
(§2) CD73 antigen ELISA binding affinity test was performed according to the method of Example 3.

[3] = molecular target: T1, extracellular domain of human CD73 …; test: ELISA on CD73-ECD, 4 µL supernatant of antibody expression, second of two readings; PBS 0.19, 0.18
[4] = molecular target: T1, extracellular domain of human CD73 …; test: ELISA on CD73-ECD, 0.8 µL supernatant of antibody expression, first of two readings; PBS 0.19, 0.18
Protocol: as §1, §2

[5] = molecular target: T1, extracellular domain of human CD73 …; test: ELISA on CD73-ECD, 100 µL supernatant of antibody expression, first of two readings; PBS 0.19, 0.18
Protocol: as §1, §2

[6] = molecular target: T1, extracellular domain of human CD73 …; test: ELISA on CD73-ECD, 20 µL supernatant of antibody expression, second of two readings; PBS 0.19, 0.18
Protocol: as §1, §2

[7] = molecular target: T1, extracellular domain of human CD73 …; test: ELISA on CD73-ECD, 0.8 µL supernatant of antibody expression, second of two readings; PBS 0.19, 0.18
Protocol: as §1, §2

[8] = molecular target: T1, extracellular domain of human CD73 …; test: ELISA on CD73-ECD, 100 µL supernatant of antibody expression, second of two readings; PBS 0.19, 0.18
[9] = molecular target: T1, extracellular domain of human CD73 …; test: SPR as the filing names it (method of Example 2, ForteBio OCTET R2)
Protocol: Surface plasmon resonance (SPR) assay: Protein A sensor was used to immobilize the antibodies, with an immobilization height of about 1.5 nM. […] Affinity detection: equilibrium for 60 s, binding for 180 s, dissociation for 180 s, at a detection temperature of 25° C. Kinetic characterization analysis was performed using the ForteBio OCTET R2 system.
The affinity of the humanized antibody to the antigen was detected by the surface plasmon resonance (SPR) assay method in Example 2.

[10] = molecular target: T1, extracellular domain of human CD73 …; test: ForteBio Octet (the filing calls it SPR), by the method of Example 2 according to the text; sheet prints 'Loading Sample ID: FDYKSD-02-His'; traces labelled 25, 12.5, 6.25, 3.13

Binder | EC50 [1] | ELISA reading (not named on the sheet) [2] | ELISA reading (not named on the sheet) [3] | ELISA reading (not named on the sheet) [4] | ELISA reading (not named on the sheet) [5] | ELISA reading (not named on the sheet) [6] | ELISA reading (not named on the sheet) [7] | ELISA reading (not named on the sheet) [8] | Kd [9] | koff [10] | kon [10]
chimeric nanobody 5-E11 (Fc fusion, Human-alpaca chimeric antibody (VHH on hIgG1 Fc); Only the VHH is tied to the tested molecule; also called original antibody 5-E11) VHH: ALQLVESGGGLVQPGGSLRLSCEVSGFTLDYYNIGWFRQAPGKEREGVSCSSNSGGSTYYADSVKGRFTISRDNAKNTVYLQMNSLKPEDTGVYYCAAYRGWHPSLDARVYDYWGQGTEVTVSS | 0.0536 µg/mL | 4.19 | 4.17 | 4.18 | 4.33 | 4.32 | 4.16 | 4.23 | – | – | –
chimeric nanobody 3-D7 (Fc fusion, Human-alpaca chimeric antibody (VHH on hIgG1 Fc); Only the VHH is tied to the tested molecule; 37-39 exist for 3-D7-FC1/FC2/FC3; also called original antibody 3-D7) VHH: QRQLVESGGGLVQPGGSLRLSCAASGFLLDYYVIGWFRQAPGKEREGVSCISGSDRSTYYADSVKGRFTISRDNAKNTVYLQMNSLKPEDTAVYFCAADPSPVTVQAMCLPRFPVPYWGQGTQVTVST | – | – | – | – | – | – | – | – | 0.472 nM | 0.000588 s⁻¹ | 1.25e+06 M⁻¹ s⁻¹
